The text below walks through data of PMC7994445.

The target of test [1] is rabbit skeletal actin filaments (rabbit) (UniProt P68135).
Test [2] deals with smooth muscle actin filaments (UniProt P62736).
Test [3] concerns the target PfActin-1 filaments (Plasmodium falciparum) (UniProt Q8I4X0).

Chain of Full-length phosphorylated smooth muscle myosin (P10587 whole entry, looked up): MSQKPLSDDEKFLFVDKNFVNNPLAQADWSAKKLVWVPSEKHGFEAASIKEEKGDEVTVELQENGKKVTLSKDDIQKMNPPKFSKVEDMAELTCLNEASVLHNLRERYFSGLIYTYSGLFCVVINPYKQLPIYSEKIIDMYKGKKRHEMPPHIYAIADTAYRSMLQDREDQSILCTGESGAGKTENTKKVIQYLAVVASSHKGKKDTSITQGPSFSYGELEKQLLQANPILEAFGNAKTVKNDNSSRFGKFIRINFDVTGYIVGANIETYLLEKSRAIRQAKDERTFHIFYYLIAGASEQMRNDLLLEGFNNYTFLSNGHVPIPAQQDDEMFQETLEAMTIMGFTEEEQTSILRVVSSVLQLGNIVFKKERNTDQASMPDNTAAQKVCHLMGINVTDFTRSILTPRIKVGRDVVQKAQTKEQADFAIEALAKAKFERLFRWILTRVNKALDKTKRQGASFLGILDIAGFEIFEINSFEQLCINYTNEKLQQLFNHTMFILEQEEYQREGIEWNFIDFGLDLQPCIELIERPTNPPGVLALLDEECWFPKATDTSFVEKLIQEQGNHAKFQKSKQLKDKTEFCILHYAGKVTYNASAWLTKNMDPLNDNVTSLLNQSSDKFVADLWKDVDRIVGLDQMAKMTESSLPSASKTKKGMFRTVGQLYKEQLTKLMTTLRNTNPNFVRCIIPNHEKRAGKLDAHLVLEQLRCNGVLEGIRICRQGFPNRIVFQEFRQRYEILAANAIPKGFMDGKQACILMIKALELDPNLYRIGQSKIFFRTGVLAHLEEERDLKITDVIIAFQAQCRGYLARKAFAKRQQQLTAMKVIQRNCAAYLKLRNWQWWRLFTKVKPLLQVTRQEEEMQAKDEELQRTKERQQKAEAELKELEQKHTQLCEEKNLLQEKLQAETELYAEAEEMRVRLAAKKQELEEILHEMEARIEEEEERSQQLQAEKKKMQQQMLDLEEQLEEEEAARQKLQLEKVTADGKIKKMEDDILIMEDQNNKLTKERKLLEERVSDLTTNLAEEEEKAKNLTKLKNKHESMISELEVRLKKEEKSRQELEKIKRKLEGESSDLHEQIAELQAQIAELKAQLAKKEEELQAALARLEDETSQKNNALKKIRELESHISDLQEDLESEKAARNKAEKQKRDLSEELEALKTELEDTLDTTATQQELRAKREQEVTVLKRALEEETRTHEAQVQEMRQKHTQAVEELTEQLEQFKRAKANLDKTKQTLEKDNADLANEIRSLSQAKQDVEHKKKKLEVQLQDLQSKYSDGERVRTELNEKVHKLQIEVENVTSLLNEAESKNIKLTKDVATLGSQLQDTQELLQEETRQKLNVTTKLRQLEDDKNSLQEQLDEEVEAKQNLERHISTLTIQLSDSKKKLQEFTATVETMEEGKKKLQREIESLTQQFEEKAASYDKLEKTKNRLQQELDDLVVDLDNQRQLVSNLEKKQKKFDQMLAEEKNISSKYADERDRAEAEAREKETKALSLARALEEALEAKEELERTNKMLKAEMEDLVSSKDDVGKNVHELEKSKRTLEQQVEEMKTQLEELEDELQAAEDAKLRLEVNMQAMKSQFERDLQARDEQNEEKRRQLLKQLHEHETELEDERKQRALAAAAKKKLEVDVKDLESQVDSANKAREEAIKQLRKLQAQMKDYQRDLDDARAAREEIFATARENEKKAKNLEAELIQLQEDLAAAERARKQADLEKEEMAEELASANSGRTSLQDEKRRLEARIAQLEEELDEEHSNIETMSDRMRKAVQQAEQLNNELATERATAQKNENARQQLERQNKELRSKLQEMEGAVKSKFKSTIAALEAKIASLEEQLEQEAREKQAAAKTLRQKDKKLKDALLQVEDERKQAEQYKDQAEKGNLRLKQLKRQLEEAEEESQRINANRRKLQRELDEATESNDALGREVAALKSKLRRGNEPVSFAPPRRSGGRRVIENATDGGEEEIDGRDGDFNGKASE

Consider “Full-length phosphorylated smooth muscle myosin (from UniProt P10587 1-1979) (complex)”, for which, in test [1], the in vitro motility speed, skeletal muscle actin filaments moved by myosin adhered to the coverslip, 30 °C came out at 0.62 µm/s. In addition, the in vitro motility speed, smooth muscle actin filaments moved by myosin adhered to the coverslip, 30 °C in test [2] is 0.51 µm/s. Besides, the in vitro motility speed, JAS-stabilized PfAct1 filaments moved by myosin adhered to the coverslip, 30 °C in test [3] came out at 0.53 µm/s.

“PfMyoA with a C-terminal biotin tag (from UniProt Q8IDR3 1-818) (complex)” displayed an in vitro motility speed, skeletal muscle actin filaments moved by myosin held on the coverslip, 30 °C in test [1] of 3.85 µm/s. The substance also came in with an in vitro motility speed, smooth muscle actin filaments moved by myosin held on the coverslip, 30 °C in test [2] of 4.21 µm/s. In test [3], this substance displayed an in vitro motility speed, JAS-stabilized PfAct1 filaments moved by myosin held on the coverslip, 30 °C of 3.55 µm/s and an in vitro motility speed, unstabilized PfAct1 filaments (no JAS) moved by myosin held on the coverslip, 30 °C of 3.98 µm/s.
